Assay results from article PMC3643599.

How the values were obtained:
GST-TDP (101-261) = GST-TDP (101-261) (human, UniProt Q13148 101-261); test: CD titration
His-TDP (101-261) = His-TDP (101-261) (human, UniProt Q13148 101-261); test: lysine acetylation footprinting MS
Chain of His-TDP (101-261) (Q13148 101-261): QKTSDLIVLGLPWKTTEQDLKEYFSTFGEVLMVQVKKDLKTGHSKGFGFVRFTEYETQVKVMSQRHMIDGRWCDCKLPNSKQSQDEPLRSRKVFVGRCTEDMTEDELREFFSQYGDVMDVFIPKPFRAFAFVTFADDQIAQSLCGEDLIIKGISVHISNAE

Chain of GST-TDP (101-261) (Q13148 101-261): as above

UGUGUGUGUGUG (ssRNA) [(UG)6]: binds (GST-TDP (101-261)); binds (His-TDP (101-261)).
